What was measured:
[1] = biological target: T1, 67B89 (domain of fibronectin) (Homo sapiens, UniProt P02751); test: ELISA specificity vs 67B89; format: binding
T1 construct: unrelated fibronectin domain EDB (67B89) could be observed; made in house; host or cells: E. coli
Description: (§1) High binding plates (Greiner, 781061) were immobilized with 2.5 μg/ml recombinant human collagen type II (h Col II, Chondrex, CHX-20051), rabbit collagen type II (rbCol II, prepared from rabbit eyes), porcine collagen type II (p Col II, prepared from porcine eyes), human collagen type I, (h Col I, Sigma, C5483-1MG), human collagen type V (h Col V, Abcam, ab7537), human collagen type III (h Col Ill, Abcam, ab7535) and 67B89 (domain of fibronectin, produced in E. coli) respectively over night at 4° C. ELISA-plates were washed 3 times with PBST (PBS+ 0.1% Tween) and blocked with 3% BSA/0.5% Tween/PBS 2 h at RT. After washing with PBST, dilution series of 1.1 μM to 7×10^−4 nM of dimers (CID 211999, CID 212000), dilution series of 100 nM to 7×10^−6 nM of tetramers (CID 212001 and CID 212704) and dilution series of 10 μM to 2 nM of dimer (CID 212705) were incubated on ELISA-plates 1 h at rt. Plates were washed with PBST and incubated with biotinylated anti-StrepTag-ab (Antikörper-online, ABIN1573895) with a dilution of 1:10.000 for 1 h at rt. The binding was visualized with a-rabbit-IgG-HRP (Sigma, A9169) with a dilution of 1:10.000 and as substrate TMB Plus von KEM EN TEC Diagnostic, Kat-Nr. 4395.

human collagen type III = biological target: T2, human collagen type III (Homo sapiens, UniProt P02461); test: ELISA specificity vs human collagen type III; format: binding
T2 construct: purchased Abcam ab7535
T2 sequence (P02461 154-1221 limits assumed): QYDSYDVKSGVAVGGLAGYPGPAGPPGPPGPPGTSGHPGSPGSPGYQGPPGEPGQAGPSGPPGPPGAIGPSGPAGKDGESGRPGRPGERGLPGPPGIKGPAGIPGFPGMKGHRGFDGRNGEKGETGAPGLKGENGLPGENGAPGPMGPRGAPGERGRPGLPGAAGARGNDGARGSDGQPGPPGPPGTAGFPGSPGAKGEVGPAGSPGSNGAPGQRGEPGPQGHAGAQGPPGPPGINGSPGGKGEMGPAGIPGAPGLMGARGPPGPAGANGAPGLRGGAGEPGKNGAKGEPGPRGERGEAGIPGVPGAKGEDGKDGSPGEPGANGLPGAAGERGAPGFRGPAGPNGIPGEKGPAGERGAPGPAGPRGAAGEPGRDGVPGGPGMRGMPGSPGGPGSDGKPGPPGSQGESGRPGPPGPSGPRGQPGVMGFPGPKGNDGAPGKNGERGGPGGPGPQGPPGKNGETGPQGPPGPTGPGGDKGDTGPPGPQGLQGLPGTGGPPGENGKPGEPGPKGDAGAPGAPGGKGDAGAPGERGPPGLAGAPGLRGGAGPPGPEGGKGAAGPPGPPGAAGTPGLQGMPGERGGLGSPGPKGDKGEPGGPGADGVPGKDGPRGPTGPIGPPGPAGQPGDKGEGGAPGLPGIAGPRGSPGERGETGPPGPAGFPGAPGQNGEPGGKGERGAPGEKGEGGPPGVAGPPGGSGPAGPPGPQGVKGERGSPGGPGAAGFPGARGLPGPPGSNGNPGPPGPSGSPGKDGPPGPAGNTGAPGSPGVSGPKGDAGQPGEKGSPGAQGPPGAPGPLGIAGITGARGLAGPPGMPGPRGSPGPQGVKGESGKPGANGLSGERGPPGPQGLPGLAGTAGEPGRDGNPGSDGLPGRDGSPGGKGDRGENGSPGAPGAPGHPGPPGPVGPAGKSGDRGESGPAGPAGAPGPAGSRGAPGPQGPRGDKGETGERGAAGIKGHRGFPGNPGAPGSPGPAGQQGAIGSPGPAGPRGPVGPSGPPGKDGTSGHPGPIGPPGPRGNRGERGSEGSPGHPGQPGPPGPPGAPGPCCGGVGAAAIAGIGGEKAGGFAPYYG
Description: as §1

[2] = biological target: T3, hCol2 (human Type II collagen) (Homo sapiens, UniProt P02458); test: Binding analysis by SPR (Biacore 3000) vs human type II collagen; conditions: dimers or tetramers; Langmuir 1:1 model
T3 construct: purchased Chondrex
T3 sequence (P02458 182-1241): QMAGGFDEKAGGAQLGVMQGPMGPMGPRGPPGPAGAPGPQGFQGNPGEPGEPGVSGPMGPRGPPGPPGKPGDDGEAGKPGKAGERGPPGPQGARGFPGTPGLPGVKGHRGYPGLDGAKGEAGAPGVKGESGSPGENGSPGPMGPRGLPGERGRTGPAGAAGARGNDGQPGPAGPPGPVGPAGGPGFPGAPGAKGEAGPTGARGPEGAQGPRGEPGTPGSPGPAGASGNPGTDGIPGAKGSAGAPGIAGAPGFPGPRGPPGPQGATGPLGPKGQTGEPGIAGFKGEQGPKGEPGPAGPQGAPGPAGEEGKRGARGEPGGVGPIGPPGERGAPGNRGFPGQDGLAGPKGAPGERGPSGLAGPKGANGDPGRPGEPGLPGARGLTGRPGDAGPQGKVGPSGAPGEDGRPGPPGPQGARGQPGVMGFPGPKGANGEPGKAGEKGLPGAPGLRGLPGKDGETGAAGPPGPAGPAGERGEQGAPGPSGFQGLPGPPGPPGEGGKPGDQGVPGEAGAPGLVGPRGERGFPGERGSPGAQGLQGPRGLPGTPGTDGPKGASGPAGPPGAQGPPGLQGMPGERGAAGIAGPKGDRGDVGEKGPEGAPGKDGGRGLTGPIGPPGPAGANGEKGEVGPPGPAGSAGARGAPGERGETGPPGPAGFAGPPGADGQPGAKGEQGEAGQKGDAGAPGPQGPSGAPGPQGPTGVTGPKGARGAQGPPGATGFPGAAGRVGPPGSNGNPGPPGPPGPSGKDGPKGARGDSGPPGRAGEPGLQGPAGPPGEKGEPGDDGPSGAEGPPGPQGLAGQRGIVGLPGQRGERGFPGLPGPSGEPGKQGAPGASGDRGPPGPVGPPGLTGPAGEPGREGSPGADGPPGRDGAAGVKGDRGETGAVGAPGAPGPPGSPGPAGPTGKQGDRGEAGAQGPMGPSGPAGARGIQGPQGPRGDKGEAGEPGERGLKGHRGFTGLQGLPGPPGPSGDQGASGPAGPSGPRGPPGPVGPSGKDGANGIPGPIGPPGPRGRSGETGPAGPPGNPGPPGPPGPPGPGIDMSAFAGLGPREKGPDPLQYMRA
Description: Proteins with affinity tag were purified by affinity chromatography and size exclusion. After affinity chromatography purification using Strep-Tactin Superflow high capacity cartridges (IBA Lifesciences) a size exclusion chromatography (SEC) was performed using an Äkta system and a Superdex™ 200 HiLoad 16/600 column (Cytiva). Fused variants with Aflibercept were purified via MabSelect SuRe (Cytiva) affinity chromatography followed by a size exclusion chromatography (SEC) using an Äkta system and a Superdex™ 200 HiLoad 16/600 column (Cytiva). All chromatography processing steps were carried out on AKTA systems using matrices from Cytiva. Homogenous species of all purified ligands were obtained; no aggregation was detected. Following SOS-PAGE analysis positive fractions were pooled and their protein concentrations were measured. Further analysis included SOS-PAGE, SE-HPLC and RP-HPLC. Protein concentrations were determined by absorbance measurement at 280 nm using the molar absorbent coefficient. Reversed phase chromatography (RP-HPLC) was performed using a Dionex HPLC system and a PLRP-S (5 μm, 300 Å) column (Agilent). Analytic size exclusion chromatography (SE-HPLC) was performed using a Dionex HPLC system and a Superdex200 increase 5/150 GL (Cytiva). Binding of Collagen II was evaluated by SPR measurements using a Biacore 3000 system. Purified Collagen II was obtained from Chondrex.inc and VEGF-165 was obtained from Millipore. Targets were immobilized on a CM5-Sensor via NHS/EDC chemistry (immobilization level ˜1000 RU). Binding molecules were injected at different concentration and affinity was calculated by langmuir 1:1 binding model.
The purified proteins were immobilized on a CM-5 sensor chip (GE Healthcare) using NHS/EDC after PDEA activation resulting in 110-140 RU with a Biacore 3000 system (GE Healthcare). The chip was equilibrated with SPR running buffer (PBS 0.05% Tween pH 7.3). Upon binding, target analyte was accumulated on the surface increasing the refractive index. This change in the refractive index was measured in real time and plotted as response or resonance units versus time. The analytes were applied to the chip in serial dilutions with a flow rate of 30 μl/min. The association was performed for 120 seconds and the dissociation for 120 seconds. After each run, the chip surface was regenerated with 30 μl regeneration buffer (10 mM glycine pH 2.0) and equilibrated with running buffer.
Binding studies were carried out by the use of the BIAcore 3000 (GE Healthcare); data evaluation was operated via the BIAevaluation 3.0 software, provided by the manufacturer, using the Langmuir 1:1 model (RI=0). Evaluated dissociation constants (KD) were standardized against the immobilized protein and indicated. Shown is the change in refractive index measured in real time and plotted as response or resonance unit [RU] versus time [sec].

T1 sequence (P02751 1089-1540 limits assumed): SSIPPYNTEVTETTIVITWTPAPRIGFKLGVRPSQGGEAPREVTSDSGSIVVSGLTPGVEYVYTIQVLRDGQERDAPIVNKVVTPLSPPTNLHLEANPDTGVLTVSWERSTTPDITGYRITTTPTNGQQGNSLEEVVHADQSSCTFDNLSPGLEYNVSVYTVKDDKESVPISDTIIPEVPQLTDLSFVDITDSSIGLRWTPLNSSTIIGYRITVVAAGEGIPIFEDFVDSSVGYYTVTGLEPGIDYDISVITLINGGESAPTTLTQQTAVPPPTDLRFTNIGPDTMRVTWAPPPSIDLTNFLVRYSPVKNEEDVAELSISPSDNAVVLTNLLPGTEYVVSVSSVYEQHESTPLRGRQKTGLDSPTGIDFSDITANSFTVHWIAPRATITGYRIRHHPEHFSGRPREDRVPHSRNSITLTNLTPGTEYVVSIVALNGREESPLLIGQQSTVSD

B1: CID 212000: dimer of SEQ ID NO: 2 (dimer with linker between the monomers) (protein)
chain: IAAKFDEAQSAADSEILHLPNLTEQQRHYFRRWLSDDPSVSTHILTQAQHLNDDQAPKGGGGSGGGGSGGGGSGGGGSIAAKFDEAQSAADSEILHLPNLTEQQRHYFRRWLSDDPSVSTHILTQAQHLNDDQAPKSAWSHPQFEK
modifications: Col2 binding protein (dimer of 211261) (CID212000)
- binding to domain of fibronectin (67B89) (ELISA) [1]: No unspecific binding
- binding to type III collagen (ELISA) (human collagen type III): No unspecific binding
- Affinity [SPR] vs hCol2 [2]: 180 nM

— patent publication US20230416345A1, “NEW TYPE II COLLAGEN BINDING PROTEINS” (Navigo Proteins GmbH, priority 2020, published 2023)
